B1: mRNA-splicing (parent)
chain: AGUUGCUGCUGGGAGCUCCAGCACAGUGAAAUGGACAGAAGGGCAGAGCAA

Variants of: B1
Experiment: exon inclusion enrichment index; higher = more inclusion; WT1 exon 5 minigene, HEK293

Variant	exon inclusion enrichment index
G5A C6U U7A G8U C9A G46A A47C	0.232
G5A C6U U7A G8U C9A G46A A47G	0.0237
G5A C6U U7A G8U C9A G46A A47U	0.0808
G5A C6U U7A G8U C9A G46C	0.0876
G5A C6U U7A G8U C9A G46C A47C	0.144
G5A C6U U7A G8U C9A G46C A47G	0.159
G5A C6U U7A G8U C9A G46C A47U	0.0869
G5A C6U U7A G8U C9A G46U	0.0405
G5A C6U U7A G8U C9A G46U A47C	0.376
G5A C6U U7A G8U C9A G46U A47G	0.0512
G5A C6U U7A G8U C9A G46U A47U	0.0891
G5A C6U U7A G8U C9A G48A	0.185
G5A C6U U7A G8U C9A G48C	0.13
G5A C6U U7A G8U C9A G48U	0.114
G5A C6U U7A G8U C9A U10A	0.0162
G5A C6U U7A G8U C9A U10A G11A	0.0538
G5A C6U U7A G8U C9A U10A G11C	0.176
G5A C6U U7A G8U C9A U10A G11U	0.0948
G5A C6U U7A G8U C9A U10C	0.4
G5A C6U U7A G8U C9A U10C G11A	0.0351
G5A C6U U7A G8U C9A U10C G11C	0.845
G5A C6U U7A G8U C9A U10C G11U	0.148
G5A C6U U7A G8U C9A U10G	0.00356
G5A C6U U7A G8U C9A U10G G11A	0.0194

Variant	exon inclusion enrichment index
G5A C6U U7A G8U C9A U10G G11C	0.022
G5A C6U U7A G8U C9A U10G G11U	0.014
G5A C6U U7A G8U C9A U17A	0.0566
G5A C6U U7A G8U C9A U17A C18A	0.0198
G5A C6U U7A G8U C9A U17A C18G	0.0258
G5A C6U U7A G8U C9A U17A C18U	0.0116
G5A C6U U7A G8U C9A U17C	0.0376
G5A C6U U7A G8U C9A U17C C18A	0.0363
G5A C6U U7A G8U C9A U17C C18G	0.0591
G5A C6U U7A G8U C9A U17C C18U	0.0327
G5A C6U U7A G8U C9A U17G	0.0456
G5A C6U U7A G8U C9A U17G C18A	0.0489
G5A C6U U7A G8U C9A U17G C18G	0.0481
G5A C6U U7A G8U C9A U17G C18U	0.0294
G5A C6U U7A G8U C9A U27A	0.0803
G5A C6U U7A G8U C9A U27A G28A	0.065
G5A C6U U7A G8U C9A U27A G28C	0.126
G5A C6U U7A G8U C9A U27A G28U	0.0109
G5A C6U U7A G8U C9A U27C	0.399
G5A C6U U7A G8U C9A U27C G28A	0.0919
G5A C6U U7A G8U C9A U27C G28C	0.1
G5A C6U U7A G8U C9A U27C G28U	0.0508
G5A C6U U7A G8U C9A U27G	0.0103
G5A C6U U7A G8U C9A U27G G28A	0.12

Variant	exon inclusion enrichment index
G5A C6U U7A G8U C9A U27G G28C	0.0308
G5A C6U U7A G8U C9A U27G G28U	0.00125
G5A C6U U7A G8U C9A U32A	0.0571
G5A C6U U7A G8U C9A U32A G33A	0.00941
G5A C6U U7A G8U C9A U32A G33C	0.0967
G5A C6U U7A G8U C9A U32A G33U	0.0199
G5A C6U U7A G8U C9A U32C	0.14
G5A C6U U7A G8U C9A U32C G33A	0.0199
G5A C6U U7A G8U C9A U32C G33C	0.144
G5A C6U U7A G8U C9A U32C G33U	0.0226
G5A C6U U7A G8U C9A U32G	0.0013
G5A C6U U7A G8U C9A U32G G33A	0.00894
G5A C6U U7A G8U C9A U32G G33C	0.0522
G5A C6U U7A G8U C9A U32G G33U	0.0122
G5A C6U U7A G8U C9G	0.0579
G5A C6U U7A G8U C9G U10A	0.0375
G5A C6U U7A G8U C9G U10C	0.339
G5A C6U U7A G8U C9G U10G	0.0235
G5A C6U U7A G8U C9U	0.0721
G5A C6U U7A G8U C9U U10A	0.00135
G5A C6U U7A G8U C9U U10C	0.453
G5A C6U U7A G8U C9U U10G	0.0345
G5A C6U U7A G8U U10A	0.0329
G5A C6U U7A G8U U10C	1.03

Variant	exon inclusion enrichment index
G5A C6U U7A G8U U10G	0.317
G5A C6U U7C C9A	1.32
G5A C6U U7C C9A U10C	2.91
G5A C6U U7C G8A C9A	0.442
G5A C6U U7C G8A U10A	0.0761
G5A C6U U7C G8A U10C	2.02
G5A C6U U7C G8C C9A	1.04
G5A C6U U7C G8U C9A	0.249
G5A C6U U7C U10C	3.3
G5A C6U U7G C9A	0.561
G5A C6U U7G G8A C9A	0.546
G5A C6U U7G G8A U10C	1.97
G5A C6U U7G G8C C9A	0.407
G5A C6U U7G G8U C9A	0.144
G5A C9A	0.851
G5A G8A U10C	1.77
G5A G8C C9U U10C	1.05
G5A G8C U10C	1.52
G5A G8U C9A	0.187
G5A G8U C9U	0.166
G5A G8U U10C	1.78
G5A U7A C9A	0.664
G5A U7A C9A U10A	0.318
G5A U7A G8A U10C	1.72

Variant	exon inclusion enrichment index
G5A U7A G8C U10C	1.42
G5A U7A G8U C9A	0.262
G5A U7A G8U U10C	1.96
G5A U7A U10C	1.84
G5A U7C C9A	2.07
G5A U7C C9A U10C	2.95
G5A U7C C9G U10C	2.65
G5A U7C C9U U10C	2.63
G5A U7C G8A	1.09
G5A U7C G8A C9A	0.923
G5A U7C G8A C9A U10A	0.384
G5A U7C G8A C9A U10C	2
G5A U7C G8A C9A U10G	0.509
G5A U7C G8A C9G	0.872
G5A U7C G8A C9G U10A	0.989
G5A U7C G8A C9G U10C	1.65
G5A U7C G8A C9G U10G	0.236
G5A U7C G8A C9U	0.959
G5A U7C G8A C9U U10A	0.0302
G5A U7C G8A C9U U10C	2.24
G5A U7C G8A C9U U10G	0.887
G5A U7C G8A G11A	0.186
G5A U7C G8A G11C	1.3
G5A U7C G8A G11U	1.23

Variant	exon inclusion enrichment index
G5A U7C G8A U10A	0.253
G5A U7C G8A U10A G11A	1.07
G5A U7C G8A U10A G11C	1.63
G5A U7C G8A U10A G11U	1.37
G5A U7C G8A U10C	2.53
G5A U7C G8A U10C A14C	1.69
G5A U7C G8A U10C A14C G15A	0.731
G5A U7C G8A U10C A14C G15C	0.761
G5A U7C G8A U10C A14C G15U	1
G5A U7C G8A U10C A14G	1.38
G5A U7C G8A U10C A14G G15A	1.8
G5A U7C G8A U10C A14G G15C	1.06
G5A U7C G8A U10C A14G G15U	0.925
G5A U7C G8A U10C A14U	0.895
G5A U7C G8A U10C A14U G15A	0.514
G5A U7C G8A U10C A14U G15C	1.01
G5A U7C G8A U10C A14U G15U	0.953
G5A U7C G8A U10C A20C	1.81
G5A U7C G8A U10C A20C G21A	0.984
G5A U7C G8A U10C A20C G21C	0.722
G5A U7C G8A U10C A20C G21U	1
G5A U7C G8A U10C A20G	2.79
G5A U7C G8A U10C A20G G21A	2.82
G5A U7C G8A U10C A20G G21C	2.62

Variant	exon inclusion enrichment index
G5A U7C G8A U10C A20G G21U	2.6
G5A U7C G8A U10C A20U	2.38
G5A U7C G8A U10C A20U G21A	1.36
G5A U7C G8A U10C A20U G21C	2.33
G5A U7C G8A U10C A20U G21U	1.69
G5A U7C G8A U10C A23C	1.89
G5A U7C G8A U10C A23C C24A	2.48
G5A U7C G8A U10C A23C C24G	3.75
G5A U7C G8A U10C A23C C24U	1.16
G5A U7C G8A U10C A23G	3.56
G5A U7C G8A U10C A23G C24A	3.5
G5A U7C G8A U10C A23G C24G	3.83
G5A U7C G8A U10C A23G C24U	0.823
G5A U7C G8A U10C A23U	1.81
G5A U7C G8A U10C A23U C24A	1.02
G5A U7C G8A U10C A23U C24G	2.69
G5A U7C G8A U10C A23U C24U	0.272
G5A U7C G8A U10C A25C	4.03
G5A U7C G8A U10C A25C G26A	4.29
G5A U7C G8A U10C A25C G26C	2.75
G5A U7C G8A U10C A25C G26U	2.86
G5A U7C G8A U10C A25G	3.43
G5A U7C G8A U10C A25G G26A	4.73
